# In the nanobody polyreactivity screen of Harvey et al. (2022):
# Assay: yeast display, Sf9 membrane polyspecificity reagent, FACS + sequencing; frameworks hold sequencing errors
# Summary of the method: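 Genes from sorted yeast were amplified by colony PCR, read by MiSeq 2 × 250 sequencing and filtered on CDR length. These cells carried a synthetic nanobody library in Saccharomyces cerevisiae BJ5465 and were sorted by FACS into low and high (top ~1%) gates on anti-HA and streptavidin fluorescence. Polyreactivity is labelled according to the gate of origin.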
row,Sequence,polyreactivity (PSR sort gate)
1,QVQLVESGGGLVQAGGSLRLSCAASGITSPAYAMGWYRQAPGKEREFVAAISSSGVSTYYADSVKGRFTISRDNAKNTVYLQMNRLKPEDTAVYYCNTVSWPLSSKYYYWGQGTQVTVSS,high polyreactivity
2,QVQLVETGGGLVQAGGSLRLSCAASGSIFTNYVMGWYRQAPGKERELVAAINWSGGSTYYADSVKGRFTISRDNAKNTVYLQMNSLKQEDTAVYFCASESFSDGSPYNYWGQGPQVTVSS,low polyreactivity
3,QVQLVESGGGLVQAGGSLRLICAASGLTFLYYTMVWYRQEPGNERELVAAITSGASTNYADSVKGRFTISRDNAKNTVYLQMNSLIPEDTAVYYCAARYVGPFAWYSGYDYWGQGTQVTVSS,low polyreactivity
4,QVQLVESGGGLVQAGGSLRLSCAASGSIFYRYAMGWYRQAPGKERELVAAISDRSGSTYYADSVKGRFTISRDNAKNTVYLQMNSLKPEDTAVYYCAAAYNYRAAGYGLSRYYYWGQGTQVTVSS,high polyreactivity
5,QVQLVESGGGLVQAGGSLRLSCAASGGNLPYNVMGRYRQAPGKEWELVAAITSGVNTNYADSVKGRFTISRDNAKNTVYLQMNSLKPEDTAVYYCAARSGGPSDGSGYWGQGTQVTVSS,low polyreactivity
6,QVQLVESGGGLVQAGGSLRLSCAASGSIFGYYAMGWYRQAPGKERELVAAISGIGGSTYYADSVKGRFTISRDNAKNTVYLQMNSLKPEDTAVYYCAKARPHVGGGGDYWGQGTQVTVSS,low polyreactivity
7,QVQLVESGGGLVQAGGSLRLSCAASGRILHGYTMGWYRQAPGKERELVAAITSGGSTYYADSVKGRFTISRDNAKNTVYLQMNSLKPEDTAVYYCAAASYRHEEYYWGQGTQVTVSS,high polyreactivity
8,QVQLVESGGGLVQAGGSLRLSCAASGSTFRYYAMGWYRQAPGKERELVAGISSSGGSTYYADSVKGRFTISRDNAKNTVYLQMNSLNPEDTAVYYCIAARGTSRSWAVFADYDYWGQGTQVTVSS,high polyreactivity
9,QVQLVQSGGGLVHAGGSLRLSCAASGRISFYYAMGWYRQAPGKERELVAAISRGGSTYYPDSVKGRFTISRDNAKNTVFLQMNSLKPEDTAVYYCAATYSGVDTPSGYDYWGQGTQVTVSS,low polyreactivity
10,QVQLVESGGGLVQAGGSLRLSCAASGLIFDYNAMGWYRQAPGKERELVAAISSGGSTYYADSVKGRFTISRDNAKNTVYLQMNSLKPEDTAVYYCATRRQAQYTRYYGSRQFYYWGQGTQVTVSS,high polyreactivity
11,QVQLVESGGGLVQAGGSLRLSCAASGRIFQSNAMGWNIQAPGKERELVAASNSGDSTYYADSVKGRFTISRDNAINTVYLQMNSLQPEDTAVYYSAADAVYQYYSYYYWGQGTQVTVSS,low polyreactivity
12,QDQLVESGGGLVQAGGSLRLSCAASGSTFPAYAMGWYRQAPGKERELVAAISVRRGRTYYADSVKGRFTSSRDNAKNTVYLQMNSLKPDDTAVYYCAAYLRPGGNYYWGQGTQVTVSS,high polyreactivity
13,QVQLVESGGGIVQAGVSLRLSCAASGSTFWDNDMGWYRPAPGKERELVAVISWDDGSTYYADSVKGRFTISRDNAKNTVYLQMNSLKPEDTAVYYCAADAYYALFPSWTVGDCPYYYWGQGTQVTVSS,high polyreactivity
14,QVQLVESGGGLVQAGGSLRLSCAASGSIFAWYGMGWYRQAPGKERELVAAITSTGSTYYADSVKGRFTISRDNAKNTVYLQMNSLKPEDTAVYDCNAYSVYLWRPGDYWGLGTQVTVSS,low polyreactivity
15,QVQLVESGGGLVQAGGSLRLSCAASGFIFGKNAMGWYRQAPGKERELVAVISWRGSSTYYADSVKGRFTISRDNAKNTVYLQMNSLNPEDTAVYYCAARYPARGTLYYWGQGTQVTVSS,low polyreactivity
16,QVQLVESGGGLVQAGGSLRLSCAASGSIFGDYAMGWYRQAPGKERELVAAISRADGTYYADSVKGRFTISRDNAKNTVYLQMNSLKPEDTAVYYCATDYGIRSYYYSWYYVFTADDYWGQGTQVTVSS,low polyreactivity
17,QVQLVESGGGLVQAGGILRLSCAASGITFRCYAMVWYRQAPGKERELVAAITTGGSTKYADSVKGRFTISRDNAKKSVYLQMNSLKPEDTAVYYCAARGRYAGGYWGQGTQVTVSS,high polyreactivity
18,QVQLVESGGGLVQAGGSLRLSCAASGSTFTNYALGWYRQAPGKEREFVAAITFRGGRTYYADSVKGRFTISRDNAKNTVYLQMNSLKPEDTAVYYCNKRTSPKRFDYWGQGTQVTVSS,high polyreactivity
19,QVQLVESGGGLVQAGGSLRLSCAASGRTIEGYAMGCYRQAPGKERELVAAISRRGGSTYYADSVKGRFTISRDNAKNTVYLQMNSLKPEDTAVYYCAARDGSTGAVRYYYWGQGTQVTVSS,high polyreactivity
20,QVQLVESGGGLVQAGGSLRLSCASSGSIFYYTEIGWYRQAPGKERELVAAISWGDGITYYADSVKGRFTISRDYAKNTVSLLMNSLKPEDTAFYYCAVDYYYLPFDYWGQGTQGTVSS,high polyreactivity
21,QVQLVESGGGLVQAGGSLRLSCAASGSIFYYNAMGWYRQAPGKERELVAAISSSGGSTYYADSVKGRFTISRDNAKNTVYLQMNSLKPEDTAVYYCAAKLRHWAHHTKYDYWGQGTQVSVSS,low polyreactivity
22,QVQLQESGGGLAQAGGCLRLSCAASGTIFPADSMGWYRQAPGIERELVAGITSGANTYYADSVKGRFTISHDNAKNTVYLQMDSLIPEDIAVYYCAAPGSSTYDLEYWGQGTQGTVSS,high polyreactivity
